For 1 molecule, Kd results are on record in paper PMC5381215 (2017).

Among the targets are HSA peptide 40 (human, UniProt P02768); HSA peptide 4 (human, UniProt P02768); HSA peptide 13 (human, UniProt P02768).
Common to all, as to assay: SPR

B1: rituximab (antibody, V domains shown)
VH: QVQLQQPGAELVKPGASVKMSCKASGYTFTSYNMHWVKQTPGRGLEWIGAIYPGNGDTSYNQKFKGKATLTADKSSSTAYMQLSSLTSEDSAVYYCARSTYYGGDWYFNVWGAGTTVTVSA
VL: QIVLSQSPAILSASPGEKVTMTCRASSSVSYIHWFQQKPGSSPKPWIYATSNLASGVPVRFSGSGSGTSYSLTISRVEAEDAATYYCQQWTSNPPTFGGGTKLEIK
modifications: AlexaFluor 488 label (only in the ImageStream experiment, a3)
As to B1, the Kd in the test with HSA peptide 40 came out at 0.52 nM; in the test with HSA peptide 4 it was 57 nM; with HSA peptide 13 it was 400 nM.
